Results: patent US20190218553, “VON WILLEBRAND FACTOR (VWF)-TARGETING AGENTS AND METHODS OF USING THE SAME” (DUKE UNIVERSITY, published 2019)

Experiments:
[1] = molecular target: T1, von Willebrand factor (VWF) (Homo sapiens, UniProt P04275 P04275:764-2813); assay: filter; Bmax 64.8%; 2 mM CaCl2, 37 C; details: tags: factor VIII free, Haematologic Technologies Inc; label: 5'-32P
Experimental: (§1) Affinity constants (Kd values) were determined using double-filter nitrocellulose filter binding assays (Rusconi et al, Thromb. Haemost. $4:841-848 (2000)). All binding studies were performed in binding buffer F (20 mM HEPES, pH 7.4, 150 mM NaCl, 2 mM CaCl₂, and 0.01% BSA) at 37° C. Human purified VWF (factor VIII free) was purchased from Haematologic Technologies Inc. (Essex Junction, Vt.) and used in the double-filter nitrocellulose filter binding assay to determine the Kd of the aptamers. Briefly, RNA were end-labeled at the 5′ end with T4 polynucleotide kinase (New England Biolabs, Beverly, Mass.) and [γ³²P] ATP (Amersham Pharmacia Biotech, Piscataway, N.J.) (Fitzwater and Polisky, Methods Enzymol. 267:275-301 (1996)). End-labeled RNA was diluted in binding buffer F, heat denatured at 65° C. for 5 minutes, and subsequently equilibrated at 37° C. Direct binding was performed by incubating trace ³²P-RNA with varying concentrations of VWF protein in binding buffer F at 37° C. for 5 min. The fraction of the nucleic acid-protein complex which bound to the nitrocellulose membrane was quantified with a phosphorimager (Molecular Dynamics, Sunnyvale, Calif.). Non-specific binding of the radiolabeled nucleic acid was subtracted out of the binding such that only specific binding remained (Wong and Lohman, Proc. Natl. Acad. Sci. USA 90:5428-5432 (1993)).

[2] = molecular target: T1, von Willebrand factor (VWF); assay: filter; Bmax 90%; 2 mM CaCl2, 37 C; details: tags: factor VIII free human purified VWF, Haematologic Technologies Inc; label: 5'-32P
Experimental: as §1

[3] = molecular target: T1, von Willebrand factor (VWF); assay: filter; Bmax 43%; 2 mM CaCl2, 37 C; details: tags: factor VIII free, Haematologic Technologies Inc; label: 5'-32P
Experimental: as §1

[4] = molecular target: T1, von Willebrand factor (VWF); assay: filter; Bmax 37%; 2 mM CaCl2, 37 C; details: tags: factor VIII free, Haematologic Technologies Inc; label: 5'-32P
Experimental: as §1

[5] = molecular target: T1, von Willebrand factor (VWF); assay: filter; Bmax 38%; 2 mM CaCl2, 37 C; details: tags: factor VIII free, Haematologic Technologies Inc; label: 5'-32P
Experimental: as §1

[6] = molecular target: T1, von Willebrand factor (VWF); assay: filter; Bmax 25%; 2 mM CaCl2, 37 C; details: tags: factor VIII free, Haematologic Technologies Inc; label: 5'-32P
Experimental: as §1

[7] = molecular target: T1, von Willebrand factor (VWF); assay: filter; Bmax 33%; 2 mM CaCl2, 37 C; details: tags: factor VIII free, Haematologic Technologies Inc; label: 5'-32P
Experimental: as §1

[8] = molecular target: T1, von Willebrand factor (VWF); assay: filter; Bmax 72%; 2 mM CaCl2, 37 C; details: tags: factor VIII free, Haematologic Technologies Inc; label: 5'-32P
Experimental: as §1

[9] = molecular target: T1, von Willebrand factor (VWF); assay: filter; Bmax 89%; 2 mM CaCl2, 37 C; details: tags: factor VIII free human purified VWF, Haematologic Technologies Inc; label: 5'-32P
Experimental: as §1

[10] = molecular target: T1, von Willebrand factor (VWF); assay: filter; Bmax 21%; 2 mM CaCl2, 37 C; details: tags: factor VIII free, Haematologic Technologies Inc; label: 5'-32P
Experimental: as §1

[11] = molecular target: T1, von Willebrand factor (VWF); assay: filter; Bmax 68%; 2 mM CaCl2, 37 C; details: tags: factor VIII free, Haematologic Technologies Inc; label: 5'-32P
Experimental: as §1

[12] = molecular target: T1, von Willebrand factor (VWF); assay: filter; Bmax 51%; 2 mM CaCl2, 37 C; details: tags: factor VIII free, Haematologic Technologies Inc; label: 5'-32P
Experimental: as §1

[13] = molecular target: T1, von Willebrand factor (VWF); assay: filter; Bmax 70%; 2 mM CaCl2, 37 C; details: tags: factor VIII free, Haematologic Technologies Inc; label: 5'-32P
Experimental: as §1

Q: For ACGAACUGCCCUCGUAAGACGCACAGACGUUUUUU (ssRNA, mAmCmGmAmAmCmUmGfCfCfCmUmCmGmUmAmAmGmAfCrGfCmAmCmAmGmAmCmGmUmUmUmUmUmUidT) [DTRI-019], which Kd [1] is on record?
A: 4.3 nM

B1: T94 vrt1 (ssRNA)
RNA: ACGAACUGCCCUCUUUUUUGACGCACAGACGU
modifications: 2'-F C2,U7,C9,C10,C11,U12,C22,C24,C30,U32; ribo A1,G3,G8,A21,G23,A25,G31; rest 2'-OMe; 3' idT
Q: How did the Kd [2] turn out when B1 was run?
A: 0.9 nM

B2: T22 (ssRNA)
RNA: GGACGAACUGCCCUCAGCUACUUUCAUGUUGCUGACGCACAGACGACUCGCUG
modifications: 2'-F C and U; 2'-OH A and G
Q: B2 was tested. Which Kd [3] did it give?
A: 28 nM

Q: CCCACGAACUGCCCUCGAUCGACGCACAGACGU (ssRNA, 2'-F C and U; 2'-OH A and G; 3' idT) [T74] was tested. Which Kd [4] did it give?
A: 23 nM

B3: T25 vrt3 (ssRNA)
RNA: ACGAACUGCCCUCAGCUACUUUCAUGUUGCUGACGCACAGACGU
modifications: mAfCmGrArAfCfUrGfCfCfCfUfCrArGfCfUrAfCfUfUfUfCrAfUrGfUfUrGfCfUrGrAfCrGfCrAfCrArGrAfCmGfU-idT (m=2'-OMe, f=2'-F, r=2'-OH)
Q: Which Kd [5] does the source give for B3 here?
A: 9.2 nM

B4: T25 vrt24 (ssRNA)
RNA: ACGAACUGCCCUCAGCUACUUUCAUGUUGCUGACGCACAGACGU
modifications: rAfCrGrArAfCfUrGfCfCfCfUfCrArGfCfUrAfCfUfUfUfCrAfUrGfUfUrGfCfUrGrAmCrGfCrAfCrArGrAfCrGfU-idT
Q: With B4 as the binder, how does the Kd [6] read?
A: 55 nM

B5: T25 vrt4 (ssRNA)
RNA: ACGAACUGCCCUCAGCUACUUUCAUGUUGCUGACGCACAGACGU
modifications: mAmCmGrArAfCfUrGfCfCfCfUfCrArGfCfUrAfCfUfUfUfCrAfUrGfUfUrGfCfUrGrAfCrGfCrAfCrArGrAmCmGmU-idT
Q: With B5 as the binder, how does the Kd [7] read?
A: 5.9 nM

Q: ACGAACUGCCCUCGUAAGACGCACAGACGU (ssRNA, mAmCmGmAmAmCmUmGfCfCfCmUmCmGmUmAmAmGmAfCrGfCmAmCmAmGmAmCmGfUidT) [DTRI-011] was tested. Which Kd [8] did it give?
A: 3.8 nM

B6: T93 vrt1 (ssRNA)
RNA: ACGAACUGCCCUCUAUUUCAUUUGACGCACAGACGU
modifications: 2'-F C2,U7,C9,C10,C11,U12,C26,C28,C34,U36; ribo A1,G3,G8,A25,G27,A29,G35; rest 2'-OMe; 3' idT
Q: B6 was tested. Which Kd [9] did it give?
A: 0.8 nM

B7: T95 vrt1 (ssRNA)
RNA: ACGAACUGCCCUCUUUUUUUUGACGCACAGACGU
modifications: 2'-F C2,U7,C9,C10,C11,U12,C24,C26,C32,U34; ribo A1,G3,G8,A23,G25,A27,G33; rest 2'-OMe; 3' idT
Q: How did the Kd [2] turn out when B7 was run?
A: 0.9 nM

Q: With CCGAACUGCCCUCAGCUAUUAUUAGCUGACGCACAGACGG (ssRNA, 2'-F C and U; 2'-OH A and G; 3' idT) [T30] as the binder, how does the Kd [10] read?
A: 39.3 nM

Q: ACGAACUGCCCUCAGCUACUUAUGUUGCUGACGCACAGACGU (ssRNA, 2'-F C and U; 2'-OH A and G; 3' idT) [T37] was tested. Which Kd [11] did it give?
A: 10 nM

B8: T10 (ssRNA)
RNA: GGGAGGUGGACGAACUGCCCUCAGCUACUUUCAUGUUGCUGACGCACAGACGACUCGCUG
modifications: 2'-F C and U; 2'-OH A and G; 3' idT
Q: B8 was tested. Which Kd [12] did it give?
A: 18.4 nM

Q: For ACGAACUGCCCUCGAUCGACGCACAGACGU (ssRNA, mAmCmGmAmAmCfUmGfCfCfCmUmCmGmAmUmCmGmAfCrGfCmAmCmAmGmAmCmGfU-idT) [T59 vrt17], which Kd [13] is on record?
A: 13 nM
